From patent publication US20110123534A1 (ERASMUS UNIVERSITY MEDICAL CENTER ROTTERDAM, published 2011) come the findings set out here.

In this test the target is Rac1 (endogenous in HUVEC lysate) (human, UniProt P63000 1-189). Nature of the test: co-immunoprecipitation with anti-FGD5 antibody from lysates of FGD5 overexpressing HUVECs, western blot. Here is the method:
GTP-RhoA, Rac1, and cdc42 activation levels were measured using the G-lisa detection system (Tebu-Bio, The Netherlands). For FGD5-protein complex co-immunoprecipitation, magnetic beads (Dynabeads, Invitrogen, The Netherlands) were coated and cross-linked with 2.5 μg anti-FGD5 antibody (Bioscience, The Netherlands) before immunoprecipitation overnight at 4° C. with protein cell lysates of transfected HUVECs (50 μg total protein of a volume of 100 μl incubation buffer). Beads were washed and the protein samples were eluted with eluation buffer (Invitrogen, The Netherlands) before analysis by western blot.
On the technique in general: In western blotting, separated proteins are transferred to a membrane and probed.

B1: FYVE, RhoGEF and PH domain-containing 5 (FGD5), human, overexpressed in HUVECs by adenovirus (Ad-FGD5) (other)
chain: MFRGPKPPIAPKPRLTAPNEWRASVYLNDSLNKCSNGRLPCVDRGLDEGPRSIPKCSESETDEDYIVVPRVPLREDEPKDEGSVGNKALVSPESSAEEEEEREEGGEACGLEGTGAGEDSVAPAAPGAGALSREGEEGTDLALEDEGEGCADEPGTLEQVSRSEEEEKLVQPHRECSLEDSGPWAGEGVFQSDLLLPHIHGEDQEPPDTPGEAEEDDEEGCASTDPAGADEGSGPDRPTEDMGQDAEDTSEEPPEKEELAGVQEAETATDCPEVLEEGCEEATGVTGGEQVDLSEPPDHEKKTNQEVAAATLEDHAQDESAEESCQIVPFENDCMEDFVTSLTGSPYEFFPTESTSFCSESCSPLSESAKGLESEQAPKLGLRAEENPMVGALCGQCGSLQGGAAEGPAAPDVVVVLEEEALDDALANPYVMGVGLPGQAAPGEGGQAASDALGGYGSKEELNCEAEGGLVPADRKNTSTRVRPHSGKVAGYVPETVPEETGPEAGSSAPGIGGAAEEVGKTLLSLEGKPLEASRALPAKPRAFTLYPRSFSVEGREIPVSVYQEPEGSGLDDHRIKRKEDNLSLSCVIGSSGSFSQRNHLPSSGTSTPSSMVDIPPPFDLACITKKPITKSSPSLLIESDSPDKYKKKKSSFKRFLALTFKKKTENKLHVDVNVSSSRSSSESSYHGPSRILEVDRRSLSNSPQLKSRTGKLRASESPSSLIFYRDGKRKGVPFSRTVSRVESFEDRSRPPFLPLPLTKPRSISFPSADTSDYENIPAMNSDYENIQIPPRRPARAGAFTKLFEDQSRALSTANENDGYVDMSSFNAFESKQQSADQDAESAYTEPYKVCPISSAAPKEDLTSDEEQRSSEEEDSASRDPSVTHKVEGQSRALVIAQELLSSEKAYVEMLQHLNLDFHGAVMRALDDMDHEGRDTLAREELRQGLSELPAIHDLHQGILEELEERLSNWESQQKVADVFLAREQGFDHHATHILQFDRYLGLLSENCLHSPRLAAAVREFEQSVQGGSQTAKHRLLRVVQRLFQYQVLLTDYLNNLCPDSAEYDNTQGALSLISKVTDRANDSMEQGENLQKLVHIEHSVRGQGDLLQPGREFLKEGTLMKVTGKNRRPRHLFLMNDVLLYTYPQKDGKYRLKNTLAVANMKVSRPVMEKVPYALKIETSESCLMLSASSCAERDEWYGCLSRALPEDYKAQALAAFHHSVEIRERLGVSLGERPPTLVPVTHVMMCMNCGCDFSLTLRRHHCHACGKIVCRNCSRNKYPLKYLKDRMAKVCDGCFGELKKRGRAVPGLMRERPVSMSFPLSSPRFSGSAFSSVFQSINPSTFKKQKKVPSALTEVAASGEGSAISGYLSRCKRGKRHWKKLWFVIKGKVLYTYMASEDKVALESMPLLGFTIAPEKEEGSSEVGPIFHLYHKKTLFYSFKAEDTNSAQRWIEAMEDASVL
notes: Guanine-nucleotide exchange factor; Made with the pAd/CMV/V5 gateway system; also called Ad-FGD5 transgene product
In the case of B1, the binding result is “no binding”.
